Results as given in patent US20250388669A1 (published 2025).

T1: B7H3 (human, UniProt Q5ZPR3 29-466, limits assumed)
T1 sequence (looked up): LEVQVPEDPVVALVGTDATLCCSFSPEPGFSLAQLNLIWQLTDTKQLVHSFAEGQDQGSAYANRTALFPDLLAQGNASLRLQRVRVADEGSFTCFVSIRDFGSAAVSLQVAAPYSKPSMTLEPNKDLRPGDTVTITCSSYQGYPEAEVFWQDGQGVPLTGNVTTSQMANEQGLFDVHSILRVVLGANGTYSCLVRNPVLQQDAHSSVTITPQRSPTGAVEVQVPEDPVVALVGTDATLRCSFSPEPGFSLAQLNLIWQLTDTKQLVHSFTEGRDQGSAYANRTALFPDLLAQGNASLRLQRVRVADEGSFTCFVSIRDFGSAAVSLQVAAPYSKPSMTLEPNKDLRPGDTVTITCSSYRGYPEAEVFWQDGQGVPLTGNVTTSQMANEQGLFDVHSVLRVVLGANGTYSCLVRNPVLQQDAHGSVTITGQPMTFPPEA

T2: B7H3 (human, UniProt Q5ZPR3 29-466, limits assumed)
T2 construct: Tumor associated antigen; also called huB7H3
T2 sequence (looked up): T1 sequence (looked up)

B1: Ly2385 (other)
chain 1: QVQLVQSGAEVKKPGASVKVSCKASGYTFTSYVMHWVRQKPGQGLEWIGYINPYNEGTESTDKFKGRATMTSDKSTSTVYMELSSLRSEDTAVYYCASIYYGYEGTYFGVWGQGTLVTVSSASTKGPSVFPLAPSSKSTSGGTAALGCLVKDYFPEPVTVSWNSGALTSGVHTFPAVLQSSGLYSLSSVVTVPSSSLGTQTYICNVNHKPSNTKVDKKVEPKSCGGSEVQLVESGGGLVQPGGSLRLSCAASGFTFSTYAMNWVRQAPGKGLEWVGRIRSKYNNYATYYADSVKGRFTISRDDSKNSLYLQMNSLKTEDTAVYYCVRHGNFGNSYVSWFAYWGQGTLVTVSSGGGGSDKTHTCPPCPAPEAAGPSVFLFPPKPKDTLMISRTPEVTCVVVDVSHEDPEVKFNWYVDGVEVHNAKTKPREEQYNSTYRVVSVLTVLHQDWLNGKEYKCKVSNKALPAPIEKTISKAKGQPREPQVYTLPPSREEMTKNQVSLWCLVKGFYPSDIAVEWESNGQPENNYKTTPPVLDSDGSFFLYSKLTVDKSRWQQGNVFSCSVMHEALHNHYTQKSLSLSPGGGGGSGGGGSGGGGSGGGGSQVQLVQSGAEVKKPGASVKVSCKASGYTFAGFEMHWVRQAPGQGLEWMGAIDPKTGGTDYNQKFKDRVTMTRDTSISTAYMELSRLRSDDTAVYYCARDLGYFDVWGQGTLVTVSS
chain 2: QVQLVQSGAEVKKPGASVKVSCKASGYTFTSYVMHWVRQKPGQGLEWIGYINPYNEGTESTDKFKGRATMTSDKSTSTVYMELSSLRSEDTAVYYCASIYYGYEGTYFGVWGQGTLVTVSSASTKGPSVFPLAPSSKSTSGGTAALGCLVKDYFPEPVTVSWNSGALTSGVHTFPAVLQSSGLYSLSSVVTVPSSSLGTQTYICNVNHKPSNTKVDKKVEPKSCGGSQAVVTQEPSLTVSPGGTVTLTCRSSTGAVTTSNYANWVQQKPGQAPRGLIGGTNKRAPWTPARFSGSLLGGKAALTITGAQAEDEADYYCALWYSNLWVFGGGTKLTVLGGGGSDKTHTCPPCPAPEAAGPSVFLFPPKPKDTLMISRTPEVTCVVVDVSHEDPEVKFNWYVDGVEVHNAKTKPREEQYNSTYRVVSVLTVLHQDWLNGKEYKCKVSNKALPAPIEKTISKAKGQPREPQVYTLPPSREEMTKNQVSLSCAVKGFYPSDIAVEWESNGQPENNYKTTPPVLDSDGSFFLVSKLTVDKSRWQQGNVFSCSVMHEALHNRFTQKSLSLSPGGGGGSGGGGSGGGGSGGGGSDIQMTQSPSSLSASVGDRVTITCRASQDIRSNLNWYQQKPGGAVKLLIYYTSRLHSGVPSRFSGSGSGTDYTLTISSLQPEDFATYFCQQSEKLPRTFGGGTKVEIR
light: EIVLTQSPATLSLSPGERATLSCRASSSVSYMHWYQQKPGQAPRPWIYATSNLASGIPARFSGSRSGTDYTLTISSLEPEDFAVYYCQQWSSNTLTFGGGTKVEIKRTVAAPSVFIFPPSDEQLKSGTASVVCLLNNFYPREAKVQWKVDNALQSGNSQESVTEQDSKDSTYSLSSTLTLSKADYEKHKVYACEVTHQGLSSPVTKSFNRGEC
notes: Tri-specific antibody: B7H3 Fabs, central CD3 Fv, terminal CD137 Fv; Flexible linker is G2S
B2: Ly1965 (bispecific antibody)
chain 1: QVQLVQSGAEVKKPGASVKVSCKASGYTFTSYVMHWVRQKPGQGLEWIGYINPYNEGTESTDKFKGRATMTSDKSTSTVYMELSSLRSEDTAVYYCASIYYGYEGTYFGVWGQGTLVTVSSASTKGPSVFPLAPSSKSTSGGTAALGCLVKDYFPEPVTVSWNSGALTSGVHTFPAVLQSSGLYSLSSVVTVPSSSLGTQTYICNVNHKPSNTKVDKKVEPKSCGGGGSGGGGSGGGGSGGGGSEVQLVESGGGLVQPGGSLRLSCAASGFTFSTYAMNWVRQAPGKGLEWVGRIRSKYNNYATYYADSVKGRFTISRDDSKNSLYLQMNSLKTEDTAVYYCVRHGNFGNSYVSWFAYWGQGTLVTVSSGGGGSDKTHTCPPCPAPEAAGPSVFLFPPKPKDTLMISRTPEVTCVVVDVSHEDPEVKFNWYVDGVEVHNAKTKPREEQYNSTYRVVSVLTVLHQDWLNGKEYKCKVSNKALPAPIEKTISKAKGQPREPQVYTLPPSREEMTKNQVSLWCLVKGFYPSDIAVEWESNGQPENNYKTTPPVLDSDGSFFLYSKLTVDKSRWQQGNVFSCSVMHEALHNHYTQKSLSLSPG
chain 2: QVQLVQSGAEVKKPGASVKVSCKASGYTFTSYVMHWVRQKPGQGLEWIGYINPYNEGTESTDKFKGRATMTSDKSTSTVYMELSSLRSEDTAVYYCASIYYGYEGTYFGVWGQGTLVTVSSASTKGPSVFPLAPSSKSTSGGTAALGCLVKDYFPEPVTVSWNSGALTSGVHTFPAVLQSSGLYSLSSVVTVPSSSLGTQTYICNVNHKPSNTKVDKKVEPKSCGGGGSGGGGSGGGGSGGGGSQAVVTQEPSLTVSPGGTVTLTCRSSTGAVTTSNYANWVQQKPGQAPRGLIGGTNKRAPWTPARFSGSLLGGKAALTITGAQAEDEADYYCALWYSNLWVFGGGTKLTVLGGGGSDKTHTCPPCPAPEAAGPSVFLFPPKPKDTLMISRTPEVTCVVVDVSHEDPEVKFNWYVDGVEVHNAKTKPREEQYNSTYRVVSVLTVLHQDWLNGKEYKCKVSNKALPAPIEKTISKAKGQPREPQVYTLPPSREEMTKNQVSLSCAVKGFYPSDIAVEWESNGQPENNYKTTPPVLDSDGSFFLVSKLTVDKSRWQQGNVFSCSVMHEALHNRFTQKSLSLSPG
light: B1 light
notes: B7H3/CD3: two B7H3 Fabs, central CD3 Fv
B3: Ly2279 (bispecific antibody)
chain 1: not shown
chain 2: QVQLVQSGAEVKKPGASVKVSCKASGYTFTSYVMHWVRQKPGQGLEWIGYINPYNEGTESTDKFKGRATMTSDKSTSTVYMELSSLRSEDTAVYYCASIYYGYEGTYFGVWGQGTLVTVSSASTKGPSVFPLAPSSKSTSGGTAALGCLVKDYFPEPVTVSWNSGALTSGVHTFPAVLQSSGLYSLSSVVTVPSSSLGTQTYICNVNHKPSNTKVDKKVEPKSCGGGGSGGGGSGGGGSGGGGSDIQMTQSPSSVSASVGDRVTITCRASQGIYSWLAWYQQKPGKAPNLLIYTASTLQSGVPSRFSGSGSGTDFTLTISSLQPEDFATYYCQQANIFPLTFGGGTKVEIKGGGGSDKTHTCPPCPAPEAAGPSVFLFPPKPKDTLMISRTPEVTCVVVDVSHEDPEVKFNWYVDGVEVHNAKTKPREEQYNSTYRVVSVLTVLHQDWLNGKEYKCKVSNKALPAPIEKTISKAKGQPREPQVYTLPPSREEMTKNQVSLSCAVKGFYPSDIAVEWESNGQPENNYKTTPPVLDSDGSFFLVSKLTVDKSRWQQGNVFSCSVMHEALHNRFTQKSLSLSPG
light: B1 light
notes: B7H3/CD40: two B7H3 Fabs, central CD40 Fv (TM383)
B4: Ly2424 (bispecific antibody, human IgG1, kappa)
chain 1: not shown
chain 2: QVQLVQSGAEVKKPGASVKVSCKASGYTFTSYVMHWVRQKPGQGLEWIGYINPYNEGTESTDKFKGRATMTSDKSTSTVYMELSSLRSEDTAVYYCASIYYGYEGTYFGVWGQGTLVTVSSASTKGPSVFPLAPSSKSTSGGTAALGCLVKDYFPEPVTVSWNSGALTSGVHTFPAVLQSSGLYSLSSVVTVPSSSLGTQTYICNVNHKPSNTKVDKKVEPKSCDKTHTCPPCPAPEAAGPSVFLFPPKPKDTLMISRTPEVTCVVVDVSHEDPEVKFNWYVDGVEVHNAKTKPREEQYNSTYRVVSVLTVLHQDWLNGKEYKCKVSNKALPAPIEKTISKAKGQPREPQVYTLPPSREEMTKNQVSLSCAVKGFYPSDIAVEWESNGQPENNYKTTPPVLDSDGSFFLVSKLTVDKSRWQQGNVFSCSVMHEALHNRFTQKSLSLSPGGGGGSGGGGSGGGGSGGGGSDIQMTQSPSSVSASVGDRVTITCRASQGIYSWLAWYQQKPGKAPNLLIYTASTLQSGVPSRFSGSGSGTDFTLTISSLQPEDFATYYCQQANIFPLTFGGGTKVEIK
light: B1 light
notes: B7H3/CD40: two B7H3 Fabs, terminal CD40 Fv (TM383)
B5: Ly2428 (bispecific antibody)
chain 1: QVQLVQSGAEVKKPGASVKVSCKASGYTFTSYVMHWVRQKPGQGLEWIGYINPYNEGTESTDKFKGRATMTSDKSTSTVYMELSSLRSEDTAVYYCASIYYGYEGTYFGVWGQGTLVTVSSASTKGPSVFPLAPSSKSTSGGTAALGCLVKDYFPEPVTVSWNSGALTSGVHTFPAVLQSSGLYSLSSVVTVPSSSLGTQTYICNVNHKPSNTKVDKKVEPKSCGGGGSGGGGSGGGGSGGGGSEVQLVESGGGLVQPGGSLRLSCAASGFTFTNYGLHWVRQAPGKGLEWVSSISPSGGVTYYRDSVKGRFTISRDNSKNTLYLQMNSLRAEDTAVYYCAKPFLGWGGANWIAHWGQGTLVTVSSGGGGSDKTHTCPPCPAPEAAGPSVFLFPPKPKDTLMISRTPEVTCVVVDVSHEDPEVKFNWYVDGVEVHNAKTKPREEQYNSTYRVVSVLTVLHQDWLNGKEYKCKVSNKALPAPIEKTISKAKGQPREPQVYTLPPSREEMTKNQVSLWCLVKGFYPSDIAVEWESNGQPENNYKTTPPVLDSDGSFFLYSKLTVDKSRWQQGNVFSCSVMHEALHNHYTQKSLSLSPG
chain 2: QVQLVQSGAEVKKPGASVKVSCKASGYTFTSYVMHWVRQKPGQGLEWIGYINPYNEGTESTDKFKGRATMTSDKSTSTVYMELSSLRSEDTAVYYCASIYYGYEGTYFGVWGQGTLVTVSSASTKGPSVFPLAPSSKSTSGGTAALGCLVKDYFPEPVTVSWNSGALTSGVHTFPAVLQSSGLYSLSSVVTVPSSSLGTQTYICNVNHKPSNTKVDKKVEPKSCGGGGSGGGGSGGGGSGGGGSDIQMTQSPSSLSASVGDRVTITCLASEDISNDLAWYQQKPGKAPKLLIYFVDRLLDGVPSRFSGSGSGTDFTLTISSLQPEDFATYYCQQSYKYPPTFGQGTKLEIKGGGGSDKTHTCPPCPAPEAAGPSVFLFPPKPKDTLMISRTPEVTCVVVDVSHEDPEVKFNWYVDGVEVHNAKTKPREEQYNSTYRVVSVLTVLHQDWLNGKEYKCKVSNKALPAPIEKTISKAKGQPREPQVYTLPPSREEMTKNQVSLSCAVKGFYPSDIAVEWESNGQPENNYKTTPPVLDSDGSFFLVSKLTVDKSRWQQGNVFSCSVMHEALHNRFTQKSLSLSPG
light: B1 light
notes: B7H3/CD40: two B7H3 Fabs, central CD40 Fv (TM559)

Columns and labels:
[1] = target: T1, B7H3; test: ELISA or FCM (Example 2)
[2] = target: T2, B7H3; test: FCM or ELISA

Row | Binder | binding result [1] | binding result [2]
1 | B1 | binds | –
2 | B2 | – | binds
3 | B3 | – | binds
4 | B4 | – | binds
5 | B5 | – | binds
